# In patent US20040086945A1, “Hairless protein-interacting partner complexes and methods thereto” (The Procter & Gamble Company, priority 2002, published 2004):
# T1: mouse HRt (hairless protein aa 490-1182) (Mus musculus, UniProt Q61645)
# T1 construct: HR cDNA corresponding to the C-terminal half of HR protein (aa residues 490 to 1182, hereinafter HRt); expressed in transfected cells; host or cells: Saccharomyces cerevisiae PJ69-2A transformed with BD-HRt plasmid, mated with Y187 carrying the human brain cDNA library in pACT2
# T1 sequence (Q61645 490-1182): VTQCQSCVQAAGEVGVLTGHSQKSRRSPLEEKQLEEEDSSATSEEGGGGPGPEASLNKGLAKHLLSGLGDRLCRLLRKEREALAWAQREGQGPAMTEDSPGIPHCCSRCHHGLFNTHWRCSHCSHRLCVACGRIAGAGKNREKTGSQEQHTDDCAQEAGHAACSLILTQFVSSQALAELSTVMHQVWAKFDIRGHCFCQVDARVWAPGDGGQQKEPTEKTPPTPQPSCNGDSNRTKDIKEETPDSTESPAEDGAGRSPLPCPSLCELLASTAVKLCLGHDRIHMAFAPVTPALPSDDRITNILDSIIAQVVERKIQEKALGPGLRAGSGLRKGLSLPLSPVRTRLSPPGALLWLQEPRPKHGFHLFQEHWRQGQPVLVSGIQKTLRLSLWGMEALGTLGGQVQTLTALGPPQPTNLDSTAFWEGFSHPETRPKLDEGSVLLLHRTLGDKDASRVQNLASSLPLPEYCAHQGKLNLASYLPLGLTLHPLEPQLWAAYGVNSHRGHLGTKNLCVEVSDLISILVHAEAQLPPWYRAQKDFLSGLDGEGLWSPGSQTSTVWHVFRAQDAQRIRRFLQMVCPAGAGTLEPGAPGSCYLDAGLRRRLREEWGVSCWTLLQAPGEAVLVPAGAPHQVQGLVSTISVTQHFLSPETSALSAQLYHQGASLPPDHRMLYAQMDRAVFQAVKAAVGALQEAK
# B1: Human pumilio(PUMH1): human HRt interacting partner, GenBank D43951, SEQ ID NO:44/45 (protein, UniProt Q14671 2-1186, looked up)
# Pumilio homolog 1: SVACVLKRKAVLWQDSFSPHLKHHPQEPANPNMPVVLTSGTGSQAQPQPAANQALAAGTHSSPVPGSIGVAGRSQDDAMVDYFFQRQHGEQLGGGGSGGGGYNNSKHRWPTGDNIHAEHQVRSMDELNHDFQALALEGRAMGEQLLPGKKFWETDESSKDGPKGIFLGDQWRDSAWGTSDHSVSQPIMVQRRPGQSFHVNSEVNSVLSPRSESGGLGVSMVEYVLSSSPGDSCLRKGGFGPRDADSDENDKGEKKNKGTFDGDKLGDLKEEGDVMDKTNGLPVQNGIDADVKDFSRTPGNCQNSANEVDLLGPNQNGSEGLAQLTSTNGAKPVEDFSNMESQSVPLDPMEHVGMEPLQFDYSGTQVPVDSAAATVGLFDYNSQQQLFQRPNALAVQQLTAAQQQQYALAAAHQPHIGLAPAAFVPNPYIISAAPPGTDPYTAGLAAAATLGPAVVPHQYYGVTPWGVYPASLFQQQAAAAAAATNSANQQTTPQAQQGQQQVLRGGASQRPLTPNQNQQGQQTDPLVAAAAVNSALAFGQGLAAGMPGYPVLAPAAYYDQTGALVVNAGARNGLGAPVRLVAPAPVIISSSAAQAAVAAAAASANGAAGGLAGTTNGPFRPLGTQQPQPQPQQQPNNNLASSSFYGNNSLNSNSQSSSLFSQGSAQPANTSLGFGSSSSLGATLGSALGGFGTAVANSNTGSGSRRDSLTGSSDLYKRTSSSLTPIGHSFYNGLSFSSSPGPVGMPLPSQGPGHSQTPPPSLSSHGSSSSLNLGGLTNGSGRYISAAPGAEAKYRSASSASSLFSPSSTLFSSSRLRYGMSDVMPSGRSRLLEDFRNNRYPNLQLREIAGHIMEFSQDQHGSRFIQLKLERATPAERQLVFNEILQAAYQLMVDVFGNYVIQKFFEFGSLEQKLALAERIRGHVLSLALQMYGCRVIQKALEFIPSDQQNEMVRELDGHVLKCVKDQNGNHVVQKCIECVQPQSLQFIIDAFKGQVFALSTHPYGCRVIQRILEHCLPDQTLPILEELHQHTEQLVQDQYGNYVIQHVLEHGRPEDKSKIVAEIRGNVLVLSQHKFASNVVEKCVTHASRTERAVLIDEVCTMNDGPHSALYTMMKDQYANYVVQKMIDVAEPGQRKIVMHKIRPHIATLRKYTYGKHILAKLEKYYMKNGVDLGPICGPPNGII
# B2: Human transcription factor Y, gamma: human HRt interacting partner, GenBank BC005003, SEQ ID NO:53/54 (protein, UniProt Q13952 1-458, looked up)
# Nuclear transcription factor …: MSTEGGFGGTSSSDAQQSLQSFWPRVMEEIRNLTVKDFRVQELPLARIKKIMKLDEDVKMISAEAPVLFAKAAQIFITELTLRAWIHTEDNKRRTLQRNDIAMAITKFDQFDFLIDIVPRDELKPPKRQEEVRQSVTPAEPVQYYFTLAQQPTAVQVQGQQQGQQTTSSTTTIQPGQIIIAQPQQGQTTPVTMQVGEGQQVQIVQAQPQGQAQQAQSGTGQTMQVMQQIITNTGEIQQIPVQLNAGQLQYIRLAQPVSGTQVVQGQIQTLATNAQQGQRNASQGKPRRCLKETLQITQTEVQQGQQQFSQFTDGQRNSVQQARVSELTGEAEPREVKATGNSTPCTSSLPTTHPPSHRAGASCVCCSQPQQSSTSPPPSDALQWVVVEVSGTPNQLETHRELHAPLPGMTSLSPLHPSQQLYQIQQVTMPAGQDLAQPMFIQSANQPSDGQAPQVTGD
# B3: Human alpha-tubulin: human HRt interacting partner, GenBank AF141348, SEQ ID NO:50 (protein, listed as Homo sapiens)
# chain: QSLGLLDQNPHLAQELRPQIQELLHSEHLGPSELEAPAPGGSSEDKGGLQPPDSKDADTPMTLPKGSTEQDAASPEKEKMNPLEQYERKVNASVPRGFPFHSSEIQRDELAPAGTGVSREAVSGLLIMGAGGGSLIVLSMLLLRRKKPYGAISHGVVEVDPMLTLEEQQLRELQRHGYENPTYRFLEERP
# B4: Human alpha enolase: human HRt interacting partner, GenBank M14328, SEQ ID NO:32/33 (protein, listed as Homo sapiens)
# chain: DGEPCFSCLYGNGPHPPAPQPSSRFNDAPAADKEPSVVQFCEFVSAPEVSRWAGPIIDVLLDYVGNVQLCSRLKEHIDSFEDWAVIKEKAEPPRPLAHLCRLRVRKAIGKYRIKLLDTLPLPGRLIRYLKYENTQ
# B5: Human POM-ZP3: human HRt interacting partner, GenBank U10099, SEQ ID NO:36/37 (protein, listed as Homo sapiens)
# chain: LEQKLALAERIRGHVLSLALQMYGCRVIQKALEFIPSDQQNEMVRELDGHVLKCVKDQNGNHVVQKCIECVQPQSLQFIIDAFKGQVFALSTHP
# B6: Human hypothalamus protein HSMNP1: human HRt interacting partner, GenBank AF220191, SEQ ID NO:30/31 (protein, listed as Homo sapiens)
# chain: DRRFSRSAIPEQIISSTLSSPSSNAPDPCAKETVLSALKEKKKKRTVEEEDQIFLDGQENKRSCLVDGLTDASSAFKVPRPGPDTLQFTVDVFHFANDSRNMIYITCHLKVTLAEQDPDELNKACSFSKPSNSWFPVEGPADICQCCNKGDCGTPSHSRRQPRVVSQWSTSASRNRRHVTEEADVTVGATDLPGQEW
# B7: Human VPS41: human HRt interacting partner, GenBank U87309, SEQ ID NO:46/47 (protein, UniProt P49754 1-854, looked up)
# Vacuolar protein …: MAEAEEQETGSLEESTDESEEEESEEEPKLKYERLSNGVTEILQKDAASCMTVHDKFLALGTHYGKVYLLDVQGNITQKFDVSPVKINQISLDESGEHMGVCSEDGKVQVFGLYSGEEFHETFDCPIKIIAVHPHFVRSSCKQFVTGGKKLLLFERSWMNRWKSAVLHEGEGNIRSVKWRGHLIAWANNMGVKIFDIISKQRITNVPRDDISLRPDMYPCSLCWKDNVTLIIGWGTSVKVCSVKERHASEMRDLPSRYVEIVSQFETEFYISGLAPLCDQLVVLSYVKEISEKTEREYCARPRLDIIQPLSETCEEISSDALTVRGFQENECRDYHLEYSEGESLFYIVSPRDVVVAKERDQDDHIDWLLEKKKYEEALMAAEISQKNIKRHKILDIGLAYINHLVERGDYDIAARKCQKILGKNAALWEYEVYKFKEIGQLKAISPYLPRGDPVLKPLIYEMILHEFLESDYEGFATLIREWPGDLYNNSVIVQAVRDHLKKDSQNKTLLKTLAELYTYDKNYGNALEIYLTLRHKDVFQLIHKHNLFSSIKDKIVLLMDFDSEKAVDMLLDNEDKISIKKVVEELEDRPELQHVYLHKLFKRDHHKGQRYHEKQISLYAEYDRPNLLPFLRDSTHCPLEKALEICQQRNFVEETVYLLSRMGNSRSALKMIMEELHDVDKAIEFAKEQDDGELWEDLILYSIDKPPFITGLLNNIGTHVDPILLIHRIKEGMEIPNLRDSLVKILQDYNLQILLREGCKKILVADSLSLLKKMHRTQMKGVLVDEENICESCLSPILPSDAAKPFSVVVFHCRHMFHKECLPMPSMNSAAQFCNICSAKNRGPGSAILEMKK
# B8: Human quinone oxidoreductase(NQO2): human HRt interacting partner, GenBank J02888, SEQ ID NO:40/41 (protein, listed as Homo sapiens)
# chain: PDSNAIRPQLVPHHRTTQQEAGGTMTSATQSARAFSRAPPQTSLWPALPSSLELELLQRQPQQASLHIEVAGPIAQTRETHRELYVFIFLL
# Molecular target: T1, mouse HRt (hairless protein aa 490-1182)
# Experiment: Yeast two-hybrid screen of BD-HRt against human brain cDNA library in AD vector, lacZ coloration on QDO-Xgal plates
# Assay type: cell-based
# Details: BD-HRt(mouse) x human brain cDNA library in AD-vector
# Source text: The present example provides for Hairless Protein (HR) interacting partners (HR-IP) using the yeast two-hybrid technology. […] Yeast cells expressing BD-HRt are mated with yeast cells pretransformed with human brain cDNA library in the activation domain (AD) vector.
# Cloning of HRt into GAL4 binding domain (BD) yeast two-hybrid (Y2H) vector: The HRt insert from pET32a-HRt is excised as an Eco RI-Xho I fragment (there is a unique Xho I site just adjacent to HRt insert) and inserted at the Eco RI-Sal I sites of Y2H-BD vector pGBKT7 (Catalog No. K1612-B; a component of Matchmaker two-hybrid System 3 (Catalog No. K1612-1) BD Biosciences Clontech, Palo Alto, Calif.) to obtain pGBKT7-HRt in which HRt is fused in-frame to GAL 4 DNA BD (this plasmid is also designated BD-HRt).
# Pretransformed human brain […] cDNA Library Screen for HRt interaction partners: Pretransformed human brain […] high-complexity GAL4 cDNA library that has already been amplified and introduced into yeast strain Y187 (MATα) is used to screen for HRt interacting proteins. […] The library host strain Y187 provides a third reporter gene (lacZ) for optional quantification of signal strength. The protocol as described in Clontech user manual (PT3183-1) is used. Briefly, the library is mixed with PJ69-2A strain that has been transformed with the BD-HRt plasmid in YPD medium containing adenine hemisulfate (0.004%) and kanamycin (0.005%) and incubated for 20-24 h at 30° C. The next day, the mating mixture is plated on Leu, Trp, His TDO that selects for two-hybrid interactions, and then the positive clones are screened for growth on Leu, Trp, His, Ade QDO, which is a more stringent condition for interaction. Colonies that grew well on QDO are also screened for lacZ expression by streaking on QDO-Xgal plates. Based on a visual assessment of colonies for the intensity of blue color, the clones are classified into high (H), medium (M), low (L) or very low (VL) categories.
# The positive clones are expected to contain an AD-IP (interacting partner) that interacts with BD-HRt. To characterize IP, the sequence of IP is determined and matched to the human genome database. For this purpose, total DNA is isolated from the positive clones and PCR amplified with […] AD LD (long distance)-insert screening amplimers (Catalog No.9103-1; BD Biosciences Clontech, PaloAlto, Calif.). Reaction is conducted in 50 μl volume for 35 cycles using the conditions recommended with the Advantage2 PCR kit (Catalog No. K1910-1; BD Biosciences Clontech, PaloAlto, Calif.).
row,Molecule,XGAL (rate and intensity of coloration of colonies on Xgal)
1,B1,M (M = Medium blue in 3-5 days)
2,B2,L (L = Low blue in 5-7 days)
3,B3,L (L = Low blue in 5-7 days)
4,B4,M (M = Medium blue in 3-5 days)
5,B5,M (M = Medium blue in 3-5 days)
6,B6,M (M = Medium blue in 3-5 days)
7,B7,M (M = Medium blue in 3-5 days)
8,B8,M (M = Medium blue in 3-5 days)
